# From patent publication US20110269113A1 (University of Pennsylvania, published 2011)
# Bridges are numbered along the chain shown (N, C = ends).
# Key:
# [1] = target: C5a receptor (C5aR) (human) (UniProt P21730); assay: cell-based or functional assay
# [2] = target: complement component C3 (native C3) (human, UniProt P01024 23-1663); assay: cell-based or functional assay
# Chain of complement component C3 (native C3) (P01024 23-1663 limits assumed): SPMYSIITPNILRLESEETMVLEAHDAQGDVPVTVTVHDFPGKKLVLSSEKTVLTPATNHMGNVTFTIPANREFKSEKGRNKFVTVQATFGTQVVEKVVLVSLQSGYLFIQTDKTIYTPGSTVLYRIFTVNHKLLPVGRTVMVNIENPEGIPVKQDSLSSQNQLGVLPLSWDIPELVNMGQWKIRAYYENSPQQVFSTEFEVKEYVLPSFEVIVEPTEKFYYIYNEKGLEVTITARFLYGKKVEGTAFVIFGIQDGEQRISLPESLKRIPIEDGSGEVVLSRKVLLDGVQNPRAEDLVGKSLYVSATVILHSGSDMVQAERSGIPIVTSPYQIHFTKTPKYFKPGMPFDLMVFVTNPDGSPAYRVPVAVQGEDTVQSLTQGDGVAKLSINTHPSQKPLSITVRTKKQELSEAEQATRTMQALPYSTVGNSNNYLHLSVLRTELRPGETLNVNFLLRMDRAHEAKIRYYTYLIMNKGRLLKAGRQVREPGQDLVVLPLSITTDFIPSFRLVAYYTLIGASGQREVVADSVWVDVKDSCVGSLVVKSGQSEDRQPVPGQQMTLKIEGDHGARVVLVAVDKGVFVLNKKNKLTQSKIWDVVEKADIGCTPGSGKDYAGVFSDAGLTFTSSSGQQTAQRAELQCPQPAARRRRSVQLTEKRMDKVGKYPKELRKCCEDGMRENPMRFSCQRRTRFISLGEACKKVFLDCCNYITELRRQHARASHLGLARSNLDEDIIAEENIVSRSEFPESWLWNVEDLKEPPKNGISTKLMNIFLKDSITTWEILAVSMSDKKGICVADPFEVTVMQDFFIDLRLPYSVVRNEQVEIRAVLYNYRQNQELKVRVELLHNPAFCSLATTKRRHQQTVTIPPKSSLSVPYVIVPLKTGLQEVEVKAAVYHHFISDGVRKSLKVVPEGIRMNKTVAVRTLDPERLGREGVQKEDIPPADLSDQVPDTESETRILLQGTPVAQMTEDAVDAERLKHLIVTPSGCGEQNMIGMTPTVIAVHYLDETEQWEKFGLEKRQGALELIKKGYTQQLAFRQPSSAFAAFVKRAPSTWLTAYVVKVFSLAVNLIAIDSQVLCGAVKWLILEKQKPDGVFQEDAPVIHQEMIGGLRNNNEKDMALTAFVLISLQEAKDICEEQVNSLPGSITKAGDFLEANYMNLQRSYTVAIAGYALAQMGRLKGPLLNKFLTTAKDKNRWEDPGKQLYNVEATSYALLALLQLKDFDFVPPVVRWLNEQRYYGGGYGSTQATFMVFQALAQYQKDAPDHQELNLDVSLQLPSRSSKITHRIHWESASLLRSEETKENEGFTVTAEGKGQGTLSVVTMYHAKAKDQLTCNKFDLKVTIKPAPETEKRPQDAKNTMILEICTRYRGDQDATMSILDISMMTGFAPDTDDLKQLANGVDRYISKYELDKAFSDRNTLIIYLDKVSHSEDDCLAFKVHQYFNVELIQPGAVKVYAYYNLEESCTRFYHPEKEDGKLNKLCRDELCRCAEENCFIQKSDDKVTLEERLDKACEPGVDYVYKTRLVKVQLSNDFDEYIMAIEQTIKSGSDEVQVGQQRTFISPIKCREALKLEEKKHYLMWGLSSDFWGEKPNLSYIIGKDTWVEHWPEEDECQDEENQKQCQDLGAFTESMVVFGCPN
# Chain of C5a receptor (C5aR) (human) (P21730 whole entry): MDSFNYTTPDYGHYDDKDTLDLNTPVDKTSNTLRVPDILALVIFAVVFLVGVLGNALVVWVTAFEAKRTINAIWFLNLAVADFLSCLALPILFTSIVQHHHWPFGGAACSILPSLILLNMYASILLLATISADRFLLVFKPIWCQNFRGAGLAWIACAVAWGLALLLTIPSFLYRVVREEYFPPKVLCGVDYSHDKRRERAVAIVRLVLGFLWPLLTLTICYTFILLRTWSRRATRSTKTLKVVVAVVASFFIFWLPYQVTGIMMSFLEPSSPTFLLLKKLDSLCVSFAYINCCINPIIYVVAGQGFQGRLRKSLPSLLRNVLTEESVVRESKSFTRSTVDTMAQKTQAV
Molecule,TF mRNA expression in PMNs (real time RT-PCR) after C5aR antagonism (fold decrease) [1],"modified prothrombin time (mPT) of PMN supernatants; healthy serum preincubated with filter fibers, with C5aR antagonist [1]","modified prothrombin time (mPT) of PMN supernatants; predialysis ESRD serum preincubated with filter fibers, with C5aR antagonist [1]",modified prothrombin time (mPT) of supernatants of PMNs preincubated with C5aR antagonist (10 µM-30 min) [1],TF mRNA expression in PMNs (real time RT-PCR) after Compstatin addition [2],"intracellular TF protein in PMNs, MFI fold expression (flow cytometry); fiber-activated healthy serum blocked with Compstatin [2]"
"small cyclic hexapeptide (AcF-[OPdChaWR]), selective C5aR antagonist",2.14,29.1 s,26.1 s,31.6 s,,
"Ac-ICVWQDWGAHRTCT-NH2 (disulfide 2-13; SMILES CC[C@H](C)[C@H](NC(C)=O)C(=O)N[C@H]1CSSC[C@@H](C(=O)N[C@H](C(N)=O)[C@@H](C)O)NC(=O)[C@H]([C@@H](C)O)NC(=O)[C@H](CCCNC(=N)N)NC(=O)[C@H](Cc2c[nH]cn2)NC(=O)[C@H](C)NC(=O)CNC(=O)[C@H](Cc2c[nH]c3ccccc23)NC(=O)[C@H](CC(=O)O)NC(=O)[C@H](CCC(N)=O)NC(=O)[C@H](Cc2c[nH]c3ccccc23)NC(=O)[C@H](C(C)C)NC1=O) [Compstatin, a 13-residue cyclic peptide (Ac-I[CVWQDWGAHRTC]TNH2)]",,,,,2.79 fold decrease,1.01 MFI fold expression
